In US20240192215A1 (E AND S HEALTHCARE, published 2024):

Assays:
[1] = biological target: T1, Peptide_005 (human); assay: peptide microarray, head 0.08 ug (text 0.008 ug/mL)
T1 construct: 15-mer on microarray; not native form, recombinant insert region
T1 peptide: ADVHSQHHHHHHHHV
Experimental: (§1) 5, 1, 0.2, 0.04, 0.008 and 0.0016 μg/mL serial dilutions were incubated on a single multi-well microarray slide at 30° C. for 1 hour. The slide includes 21 individual mini-arrays (one mini-array per sample dilution).
(§2) DyLight 650 was used as a label. False-positive binding to a peptide was evaluated by performing one additional control incubation in which only a secondary antibody was applied on the same microarray slide. Before performing each step, the microarrays were washed with a washing buffer.

[2] = biological target: T2, Peptide_004 (human); assay: peptide microarray, 0.2 ug/mL
T2 construct: 15-mer on microarray; not native form, recombinant insert region
T2 peptide: AADVHSQHHHHHHHH
Experimental: as §1, §2

[3] = biological target: T1, Peptide_005; assay: peptide microarray, 0.2 ug/mL
Experimental: as §1, §2

[4] = biological target: T2, Peptide_004; assay: peptide microarray, 0.0016 ug/mL
Experimental: as §1, §2

[5] = biological target: T1, Peptide_005; assay: peptide microarray, 0.0016 ug/mL
Experimental: as §1, §2

[6] = biological target: T3, Peptide_021 (human); assay: peptide microarray, head 0.08 ug (text 0.008 ug/mL)
T3 construct: 15-mer of hTrx1 on microarray
T3 peptide: QIESKTAFQEALDAA
Experimental: as §1, §2

[7] = biological target: T4, Peptide_095 (human); assay: peptide microarray, 0.2 ug/mL
T4 construct: 15-mer of hTrx1 on microarray
T4 peptide: QFFKKGQKVGEFSGA
Experimental: as §1, §2

[8] = biological target: T5, Peptide_018 (human); assay: peptide microarray, 0.2 ug/mL
T5 construct: 15-mer on microarray; not native form, includes recombinant insert region; also called HVKQIESKTAFQEAL
T5 peptide: HVKQIESKTAFQEAL
Experimental: as §1, §2

[9] = biological target: T6, Peptide_015 (human); assay: peptide microarray, 0.2 ug/mL
T6 construct: 15-mer on microarray; not native form, includes recombinant insert region
T6 peptide: HHHHVKQIESKTAFQ
Experimental: as §1, §2

[10] = biological target: T7, Peptide_012 (human); assay: peptide microarray, 0.2 ug/mL
T7 construct: 15-mer on microarray; not native form, includes recombinant insert region
T7 peptide: HHHHHHHVKQIESKT
Experimental: as §1, §2

[11] = biological target: T8, Peptide_051 (human); assay: peptide microarray, 0.2 ug/mL
T8 construct: 15-mer of hTrx1 on microarray
T8 peptide: PCKMIKPFFHSLSEK
Experimental: as §1, §2

[12] = biological target: T9, Peptide_084 (human); assay: peptide microarray, 0.2 ug/mL
T9 construct: 15-mer of hTrx1 on microarray
T9 peptide: SECEVKCMPTFQFFK
Experimental: as §1, §2

[13] = biological target: T10, Peptide_085 (human); assay: peptide microarray, 0.2 ug/mL
T10 construct: 15-mer of hTrx1 on microarray
T10 peptide: ECEVKCMPTFQFFKK
Experimental: as §1, §2

[14] = biological target: T11, Peptide_025 (human); assay: peptide microarray, 0.2 ug/mL
T11 construct: 15-mer of hTrx1 on microarray
T11 peptide: KTAFQEALDAAGDKL
Experimental: as §1, §2

[15] = biological target: T12, Peptide_086 (human); assay: peptide microarray, 0.2 ug/mL
T12 construct: 15-mer of hTrx1 on microarray
T12 peptide: CEVKCMPTFQFFKKG
Experimental: as §1, §2

[16] = biological target: T13, Peptide_093 (human); assay: peptide microarray, 0.2 ug/mL
T13 construct: 15-mer of hTrx1 on microarray
T13 peptide: TFQFFKKGQKVGEFS
Experimental: as §1, §2

[17] = biological target: T14, Peptide_023 (human); assay: peptide microarray, 0.2 ug/mL
T14 construct: 15-mer of hTrx1 on microarray
T14 peptide: ESKTAFQEALDAAGD
Experimental: as §1, §2

[18] = biological target: T15, Peptide_094 (human); assay: peptide microarray, 0.2 ug/mL
T15 construct: 15-mer of hTrx1 on microarray
T15 peptide: FQFFKKGQKVGEFSG
Experimental: as §1, §2

[19] = biological target: T16, Peptide_092 (human); assay: peptide microarray, 0.2 ug/mL
T16 construct: 15-mer of hTrx1 on microarray
T16 peptide: PTFQFFKKGQKVGEF
Experimental: as §1, §2

[20] = biological target: T17, Peptide_020 (human); assay: peptide microarray, 0.2 ug/mL
T17 construct: 15-mer of hTrx1 on microarray
T17 peptide: KQIESKTAFQEALDA
Experimental: as §1, §2

[21] = biological target: T18, Peptide_022 (human); assay: peptide microarray, 0.2 ug/mL
T18 construct: 15-mer of hTrx1 on microarray
T18 peptide: IESKTAFQEALDAAG
Experimental: as §1, §2

[22] = biological target: T19, Peptide_024 (human); assay: peptide microarray, 0.2 ug/mL
T19 construct: 15-mer of hTrx1 on microarray
T19 peptide: SKTAFQEALDAAGDK
Experimental: as §1, §2

[23] = biological target: T20, Peptide_019 (human); assay: peptide microarray, 0.2 ug/mL
T20 construct: 15-mer of hTrx1 on microarray
T20 peptide: VKQIESKTAFQEALD
Experimental: as §1, §2

[24] = biological target: T3, Peptide_021; assay: peptide microarray, 0.2 ug/mL
Experimental: as §1, §2

[25] = biological target: T21, Peptide_013 (human); assay: peptide microarray, 0.2 ug/mL
T21 construct: 15-mer on microarray; not native form, includes recombinant insert region
T21 peptide: HHHHHHVKQIESKTA
Experimental: as §1, §2

[26] = biological target: T22, Peptide_045 (human); assay: peptide microarray, 0.2 ug/mL
T22 construct: 15-mer of hTrx1 on microarray
T22 peptide: SATWCGPCKMIKPFF
Experimental: as §1, §2

[27] = biological target: T23, Peptide_014 (human); assay: peptide microarray, 0.2 ug/mL
T23 construct: 15-mer on microarray; not native form, includes recombinant insert region
T23 peptide: HHHHHVKQIESKTAF
Experimental: as §1, §2

[28] = biological target: T4, Peptide_095; assay: peptide microarray, 0.0016 ug/mL
Experimental: as §1, §2

[29] = biological target: T5, Peptide_018; assay: peptide microarray, 0.0016 ug/mL
Experimental: as §1, §2

[30] = biological target: T6, Peptide_015; assay: peptide microarray, 0.0016 ug/mL
Experimental: as §1, §2

[31] = biological target: T8, Peptide_051; assay: peptide microarray, 0.0016 ug/mL
Experimental: as §1, §2

[32] = biological target: T9, Peptide_084; assay: peptide microarray, 0.0016 ug/mL
Experimental: as §1, §2

[33] = biological target: T11, Peptide_025; assay: peptide microarray, 0.0016 ug/mL
Experimental: as §1, §2

[34] = biological target: T13, Peptide_093; assay: peptide microarray, 0.0016 ug/mL
Experimental: as §1, §2

[35] = biological target: T14, Peptide_023; assay: peptide microarray, 0.0016 ug/mL
Experimental: as §1, §2

[36] = biological target: T16, Peptide_092; assay: peptide microarray, 0.0016 ug/mL
Experimental: as §1, §2

[37] = biological target: T17, Peptide_020; assay: peptide microarray, 0.0016 ug/mL
Experimental: as §1, §2

[38] = biological target: T18, Peptide_022; assay: peptide microarray, 0.0016 ug/mL
Experimental: as §1, §2

[39] = biological target: T20, Peptide_019; assay: peptide microarray, 0.0016 ug/mL
Experimental: as §1, §2

[40] = biological target: T21, Peptide_013; assay: peptide microarray, 0.0016 ug/mL
Experimental: as §1, §2

[41] = biological target: T23, Peptide_014; assay: peptide microarray, 0.0016 ug/mL
Experimental: as §1, §2

B1: monoclonal antibody B266-1 (antibody, human IgG1)
light: QIVLTQSPAIMSASPGEKVTMTCSASSRISYMYWYQQKPGTSPKRWIYDTSKLASGVPARFSGSGSGTSYSLTISTMEAEDAATYYCHQRSSYPTFGAGTKLELKSVAAPSVFIFPPSDEQLKSGTASVVCLLNNFYPREAKVQWKVDNALQSGNSQESVTEQDSKDSTYSLSSTLTLSKADYEKHKVYACEVTHQGLSSPVTKSFNRGEC
heavy: not shown
notes: B266 with the Fc part changed to human IgG1; also called B266-1 (Trx1-hIgG1); B266-1 (hTrx1-hIgG1)
signal (blank-control = 1) [1]: 1.28
signal (blank-control = 1) [2]: 1.41
signal (blank-control = 1) [3]: 1.78
signal (blank-control = 1) [4]: 0.99
signal (blank-control = 1) [5]: 1.6

B2: monoclonal antibody B264 (antibody, mouse IgG1, kappa, V domains shown)
VH: QVQLQQSGAELARPGASVKMSCKASGYTFTSYTMHWVKQRPGQGLEWIGYINPTSDYTNYNQKFKDKATLTADKSSSTAYMQLSSLTSEDSAVYFCASEGGFLYYFDYWGQGTTLTVSS
VL: DVLMTQTPLSLPVSLGDQASISCRSSQSIVHSNGNTYLEWYLQKPGQSPKLLIYKVSNRFSGVPDRFSGSGSGTDFTLKISRVEAEDLGVYYCFQGSHVPYTFGGGTKLEIKR
notes: also called AB264; B264 (Trx1-mIgG1)
signal (blank-control = 1) [6]: 0.84
signal (blank-control = 1) [7]: 2.13
signal (blank-control = 1) [8]: 3.49
signal (blank-control = 1) [9]: 2.5
signal (blank-control = 1) [10]: 1.72
signal (blank-control = 1) [11]: 2.32
signal (blank-control = 1) [12]: 2.36
signal (blank-control = 1) [13]: 2.23
signal (blank-control = 1) [14]: 4.9
signal (blank-control = 1) [15]: 1.16
signal (blank-control = 1) [16]: 3.72
signal (blank-control = 1) [17]: 1.12
signal (blank-control = 1) [18]: 2.11
signal (blank-control = 1) [19]: 6.81
signal (blank-control = 1) [20]: 1.84
signal (blank-control = 1) [21]: 4.2
signal (blank-control = 1) [22]: 4
signal (blank-control = 1) [23]: 1.48
signal (blank-control = 1) [24]: 2.08
signal (blank-control = 1) [25]: 1.85
signal (blank-control = 1) [26]: 4.58
signal (blank-control = 1) [27]: 3.16
signal (blank-control = 1) [28]: 1.07
signal (blank-control = 1) [29]: 0.68
signal (blank-control = 1) [30]: 0.58
signal (blank-control = 1) [31]: 0.58
signal (blank-control = 1) [32]: 0.97
signal (blank-control = 1) [33]: 0.88
signal (blank-control = 1) [34]: 1.12
signal (blank-control = 1) [35]: 0.78
signal (blank-control = 1) [36]: 1.86
signal (blank-control = 1) [37]: 0.71
signal (blank-control = 1) [38]: 0.72
signal (blank-control = 1) [39]: 0.85
signal (blank-control = 1) [40]: 0.75
signal (blank-control = 1) [41]: 0.69
